{
  "source": "patent US20210317419",
  "proteins": {"B1": {"name": "D-proline reductase PrdB protein derived from Peptoclostridium difficile 630, with a 6X histidine tag at the carboxyl terminus (prdB-H6) (protein)", "chain": "MSLTTVQGLQSEIFVPITPPPVWTPVTKELKDMTIALATAAGVHLKSDKRFNLAGDTTFRAIPNTATVDEMMVSHGGYDNGDVNKDINCMFPIDRLHELAAEGFIKGVAPMHYAFMGGGGNQHVFTEETGPAIAAKLKEEGVDGVVMTAGGTCHRTAVIVQRAIEEAGIPTIIIAALPPVVRQNGTPRAVAPLVPMGANAGEPHNIEMQTHILRDTLEQLVAIPSAGKIVPLPYEYKAHVHHHHHH"}},
  "target": "T1, D-proline reductase PrdA protein derived from Peptoclostridium difficile 630, with 6X histidine tags at both termini (H6-prdA-H6)",
  "T1 chain": "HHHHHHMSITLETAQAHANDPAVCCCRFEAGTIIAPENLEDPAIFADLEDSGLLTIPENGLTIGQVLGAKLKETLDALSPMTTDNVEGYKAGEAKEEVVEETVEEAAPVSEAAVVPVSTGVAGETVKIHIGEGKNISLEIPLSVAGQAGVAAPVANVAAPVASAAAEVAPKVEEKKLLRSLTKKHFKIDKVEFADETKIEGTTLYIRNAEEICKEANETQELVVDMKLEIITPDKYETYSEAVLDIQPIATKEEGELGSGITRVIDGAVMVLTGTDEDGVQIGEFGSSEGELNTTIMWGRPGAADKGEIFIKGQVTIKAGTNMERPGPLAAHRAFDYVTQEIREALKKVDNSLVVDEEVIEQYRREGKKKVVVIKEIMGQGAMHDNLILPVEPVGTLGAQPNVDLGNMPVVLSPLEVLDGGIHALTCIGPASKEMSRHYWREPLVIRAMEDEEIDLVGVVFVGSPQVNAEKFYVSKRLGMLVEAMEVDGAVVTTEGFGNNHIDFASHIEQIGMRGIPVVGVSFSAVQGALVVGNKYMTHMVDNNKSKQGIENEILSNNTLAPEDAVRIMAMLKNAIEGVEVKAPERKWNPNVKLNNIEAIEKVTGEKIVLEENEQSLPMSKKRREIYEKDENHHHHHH",
  "data": [
    {"protein": "B1", "values": [
      {"measurement": "self-cleavage of PrdA protein (Western blot of lysates of co-expressing E. coli)", "value": "PrdH protein and PrdB protein must exist at the same time to induce self-cleavage of PrdA protein"}
    ]}
  ]
}
